This test has as its system acetaminophen protein adduct (BSA-APAP, 3-(cystein-S-yl)acetaminophen). Briefly: Competitive ELISA: relative inhibitory potency of APAP-protein adduct (BSA-APAP) versus free APAP. It is filed as binding. Particulars: inhibitors BSA-APAP vs APAP on a molar basis, clone supernatant final dilution 1:500. From the text:
Tissue culture supernatants from Rabbit monoclonal antibody clone 14-12 at a dilution of 1:250 was mixed with serial 4-fold dilutions of inhibitor (either BSA-APAP or APAP) such that the final dilution of RmAb was 1:500. The final concentrations of APAP were 80, 20, 5, 1.25, and 0.31 nmole per ELISA well. The final concentrations of APAP-BSA (quantified by HPLC-EC as APAP-Cys from the hydrolyzed protein) were 10, 2.5, 0.625, 0.156, and 0.04 pmole per ELISA well.
Synthetically prepared acetaminophen-protein adduct (BSA-APAP) and free drug (APAP) were evaluated in competitive ELISA to determine their relative capacity, on a molar basis, to inhibit the binding of clone 14-12 rabbit monoclonal antibody to solid-phase immobilized acetaminophen protein adduct. […] Restated, clone 14-12 antibody has approximately 8000 times more affinity for acetaminophen protein adduct than it does for free APAP as measured in this ELISA context.
The competitive ELISA was repeated with rabbit monoclonal antibody (RMAb) 14-12 and rabbit monoclonal antibody (RMAb) 22-8. […] After incubation and washing, bound RMAb was detected using Goat anti-Rabbit-IgG conjugated to HRP followed by the substrate TMB and color development was determined using an ELISA plate reader. […]
In general terms: An ELISA detects its analyte on a solid surface through an enzyme-linked reagent.

B1: 22-8: rabbit monoclonal antibody to acetaminophen-protein adduct, immunogen CP-2IT-APAP; light chain SEQ ID NO:15, heavy chain SEQ ID NO:16 (antibody)
heavy: METGLRWLLLVAVLKGVQCQSLEESGGRLVTPGGSLTLTCTASGLTINNYYIIWVRQAPGKGLKYIGITYGGGFAYYASWAKGRFTISRTSTTVDLKMTSLTAEDTATYFCVRAAAGGAYDLWGQGTLVTVSSGQPKAPSVFPLAPCCGDTPSSTVTLGCLVKGYLPEPVTVTWNSGTLTNGVRTFPSVRQSSGLYSLSSVVSVTSSSQPVTCNVAHPATNTKVDKTVAPSTCSKPTCPPPELLGGPSVFIFPPKPKDTLMISRTPEVTCVVVDVSQDDPEVQFTWYINNEQVRTARPPLREQQFNSTIRVVSTLPIAHQDWLRGKEFKCKVHNKALPAPIEKTISKARGQPLEPKVYTMGPPREELSSRSVSLTCMINGFYPSDISVEWEKNGKAEDNYKTTPAVLDSDGSYFLYSKLSVPTSEWQRGDVFTCSVMHEALHNHYTQKSISRSPGK
light: MDTRAPTQLLGLLLLWLPGATFAIEMTQTPSPVSAVVGGTVTINCQSSQNVFRKNYLSWFQQKPGQPPKLLISYIDSLTSGVPSRFSGSGAGTQFTLTISDVQCDDAATYYCLGVDGSANDATFGGGTEVVVEGDPVAPTVLIFPPAADQVATGTVTIVCVANKYFPDVTVTWEVDGTTQTTGIENSKTPQNSADCTYNLSSTLTLTSTQYNSHKEYTCKVTQGTTSVVQSFNRGDC
Turning to B1, the “times more affinity for acetaminophen protein adduct than for free APAP” value is listed as “approximately 1250 times”.

B2: 14-12: rabbit monoclonal antibody to acetaminophen-protein adduct, immunogen CP-2IT-APAP; light chain SEQ ID NO:13, heavy chain SEQ ID NO:14 (antibody)
heavy: METGLRWLLLVAVLKGVQCQSVEESGGRLVTPGTPLTLTCTVSGFSINAYGINWVRQAPGKGLEYIGFSAPHTASYARWTKGRFTMSRTSTTVDLRMTSPTTEDTATYFCARYDRGGMVFNLWGQGTLVTVSSGQPKAPSVFPLAPCCGDTPSSTVTLGCLVKGYLPEPVTVTWNSGTLTNGVRTFPSVRQSSGLYSLSSVVSVTSSSQPVTCNVAHPATNTKVDKTVAPSTCSKPTCPPPELLGGPSVFIFPPKPKDTLMISRTPEVTCVVVDVSQDDPEVQFTWYINNEQVRTARPPLREQQFNSTIRVVSTLPIAHQDWLRGKEFKCKVHNKALPAPIEKTISKARGQPLEPKVYTMGPPREELSSRSVSLTCMINGFYPSDISVEWEKNGKAEDNYKTTPAVLDSDGSYFLYSKLSVPTSEWQRGDVFTCSVMHEALHNHYTQKSISRSPGK
light: MDTRAPTQLLGLLLLWLPGATFALVMTQTPSSVPAAVGGTVTIGCQASQSISRQVSWYQQKPGQPPKLLIYRASTLASGVSSRFKGSGSGTEFTLTISGVQCDDAATYYCLGIVTDRIADGLAFGGGTEVVVKGDPVAPTVLIFPPAADQVATGTVTIVCVANKYFPDVTVTWEVDGTTQTTGIENSKTPQNSADCTYNLSSTLTLTSTQYNSHKEYTCKVTQGTTSVVQSFNRGDC
For B2, the “times more affinity for acetaminophen protein adduct than for free APAP” value is “approximately 8000 times”.

The record behind these values is US11566081B2, “Anti-acetaminophen antibodies and acetaminophen protein adducts” (BioVentures, LLC, priority 2014, dated 2023).
